B1: hsgk3: human serum-and-glucocorticoid-dependent kinase 3, coexpressed in oocytes by mRNA injection (protein, UniProt Q96BR1 1-496, looked up)
Serine/threonine-protein …: MQRDHTMDYKESCPSVSIPSSDEHREKKKRFTVYKVLVSVGRSEWFVFRRYAEFDKLYNTLKKQFPAMALKIPAKRIFGDNFDPDFIKQRRAGLNEFIQNLVRYPELYNHPDVRAFLQMDSPKHQSDPSEDEDERSSQKLHSTSQNINLGPSGNPHAKPTDFDFLKVIGKGSFGKVLLAKRKLDGKFYAVKVLQKKIVLNRKEQKHIMAERNVLLKNVKHPFLVGLHYSFQTTEKLYFVLDFVNGGELFFHLQRERSFPEHRARFYAAEIASALGYLHSIKIVYRDLKPENILLDSVGHVVLTDFGLCKEGIAISDTTTTFCGTPEYLAPEVIRKQPYDNTVDWWCLGAVLYEMLYGLPPFYCRDVAEMYDNILHKPLSLRPGVSLTAWSILEELLEKDRQNRLGAKEDFLEIQNHPFFESLSWADLVQKKIPPPFNPNVAGPDDIRNFDTAFTEETVPYSVCVSSDYSIVNASVLEADDAFVGFSYAPPSEDLFL
B2: hsgk2: human serum-and-glucocorticoid-dependent kinase 2, coexpressed in oocytes by mRNA injection (protein, UniProt Q9HBY8 1-367, looked up)
Serine/threonine-protein …: MNSSPAGTPSPQPSRANGNINLGPSANPNAQPTDFDFLKVIGKGNYGKVLLAKRKSDGAFYAVKVLQKKSILKKKEQSHIMAERSVLLKNVRHPFLVGLRYSFQTPEKLYFVLDYVNGGELFFHLQRERRFLEPRARFYAAEVASAIGYLHSLNIIYRDLKPENILLDCQGHVVLTDFGLCKEGVEPEDTTSTFCGTPEYLAPEVLRKEPYDRAVDWWCLGAVLYEMLHGLPPFYSQDVSQMYENILHQPLQIPGGRTVAACDLLQSLLHKDQRQRLGSKADFLEIKNHVFFSPINWDDLYHKRLTPPFNPNVTGPADLKHFDPEFTQEAVSKSIGCTPDTVASSSGASSAFLGFSYAPEDDDILDC
B3: hsgk1: human serum-and-glucocorticoid-dependent kinase 1, coexpressed in oocytes by mRNA injection (protein, UniProt O00141 1-431, looked up)
Serine/threonine-protein …: MTVKTEAAKGTLTYSRMRGMVAILIAFMKQRRMGLNDFIQKIANNSYACKHPEVQSILKISQPQEPELMNANPSPPPSPSQQINLGPSSNPHAKPSDFHFLKVIGKGSFGKVLLARHKAEEVFYAVKVLQKKAILKKKEEKHIMSERNVLLKNVKHPFLVGLHFSFQTADKLYFVLDYINGGELFYHLQRERCFLEPRARFYAAEIASALGYLHSLNIVYRDLKPENILLDSQGHIVLTDFGLCKENIEHNSTTSTFCGTPEYLAPEVLHKQPYDRTVDWWCLGAVLYEMLYGLPPFYSRNTAEMYDNILNKPLQLKPNITNSARHLLEGLLQKDRTKRLGAKDDFMEIKSHVFFSLINWDDLINKKITPPFNPNVSGPNDLRHFDPEFTEEPVPNSIGKSPDSVLVTASVKEAAEAFLGFSYAPPTDSFL

Columns and labels:
[1] = system: epithelial Na^+-channel, α-ENaC, β-ENaC, and γ-ENaC (rENaC); test: Dual-electrode voltage clip, amiloride-sensitive Na+-current in oocytes expressing ENaC; assay type: cell-based, Xenopus laevis; conditions: for activation of the Na^+-channel rENaC by hsgk2 and hsgk3: kinase inhibitor; for activation of the Na^+-channel rENaC by hsgk2 and hsgk3 / amiloride-inhibitable current, Iamil, through the Na^+-channel, rENaC: FIG. 1; for amiloride-inhibitable current, Iamil, through the Na^+-channel, rENaC: coexpression with kinase; for Na^+-current (INa): oocytes injected with α-ENaC, β-ENaC, and γ-ENaC plus kinase, mean ± SEM, n=7
Experimental: (§1) Each of the oocytes involved was injected with 1 ng cRNA from α-ENaC, β-ENaC, and γ-ENaC, Kv1.3, or minK, both with and without simultaneous injection of the kinases hsgk1, hsgk2, and hsgk3. Dual-electrode voltage-clip and current-clip experiments could be undertaken 2 to 4 days following injection. Na^+-currents (in the case of ENaC) and K^+-currents (in the case of Kv1.3 and minK) were filtered at 10 Hz and recorded using a recorder. The experiments were normally conducted on the second day following cRNA-injection. The bath solution contained 96 mM NaCl, 2 mM KCl, 1.8 mM CaCl2, 1 mM MgCl2, and 5 mM HEPES at a pH of 7.5 and a holding potential of −80 mV. In all experiments, bath pH was set by titration with HCl or NaOH. Bath-liquid flow rate was set to 20 ml/min, which provided for a complete change of solution within 10 to 15 seconds. All data were output in the form of arithmetic means±SEM.
(§2) In order to investigate the effects of hsgk1, hsgk2, or hsgk3, the mRNA of the respective kinases, together with the mRNA of the epithelial Na^+-channel, α-ENaC, β-ENaC, and γ-ENaC, or the voltage-dependent K^+-channel, Kv1.3, or the minK-channel, were injected into Xenopus oocytes and the amiloride-sensitive Na^+-current, INa, and voltage-activated K^+-current, IK, subsequently determined.

[2] = system: hsgk2 and hsgk3; test: Kinase inhibitors on hsgk stimulation of channel activity in oocytes; assay type: cell-based, Xenopus laevis; conditions: protein-kinase inhibitor added; Table 1, FIGS. 1 and 2
Experimental: as §1, §2

[3] = system: human embryonic kidney cells (HEK-cells); test: Survival of HEK-cells after extraction of fetal calf serum; assay type: cell-based; conditions: FCS extracted, FIG. 3
Experimental: According to FIG. 3, extracting fetal calf serum (FCS) from human embryonic kidney cells (HEK-cells) (Lewis, et al (1984); Phillips, et al (1982)) reduces the total number of cells present due to cell mortality, as may be seen by comparing the black bars to the dotted bars, where FIG. 3 depicts the situations after 24 hours and 48 hours, respectively. This reduction is lessened by the insulin-like growth factor (IGF1), represented by the white bars. The effect of IGF1 is eliminated by the simultaneous inhibition of K^+-channels using margatoxin (MT), represented by the hatched bars. […] The activation of the Kv1.3-channel mediated by sgk2 and sgk3 thus has an antiapoptotic effect, and lack of an sgk2-effect and sgk3-effect would thus cause an increase in cell mortality, as occurs in the case of, for example, neurodegeneration. Conversely, activators of sgk2 and sgk3 may be employed for preventing apoptotic cell death in the case of neurodegeneration. Since Kv1.3 also plays a major role in regulating lymphocyte proliferation and lymphocyte function, inhibitors or activators of these kinases may be employed for affecting the immune system in the case of, e.g., autoimmune diseases or immune deficiency.

[4] = system: voltage-dependent K^+-channel, Kv1.3; test: Dual-electrode voltage clip, voltage-activated K+-current in oocytes expressing Kv1.3; assay type: cell-based, Xenopus laevis; conditions: oocytes injected with Kv1.3 plus kinase; mean ± SEM, n=7
Experimental: as §1, §2

[5] = system: minK-channel; test: Dual-electrode voltage clip, K+-current in oocytes expressing minK; assay type: cell-based, Xenopus laevis; conditions: oocytes injected with minK plus kinase; mean ± SEM, n=7
Experimental: as §1, §2

Molecule | K^+-current (IK), Kv1.3 [4] | Na^+-current (INa) [1] | K^+-current (IK), MinK [5] | other results
COc1ccc2c(c[n+](C)c3c4cc5c(cc4ccc23)OCO5)c1OC [chelerythrine, reference compound] | – | – | – | activation of the Na^+-channel rENaC by hsgk2 and hsgk3 [1]: inhibit activation of the Na^+-channel; stimulating effects of hsgk on ENaC-activity, Kv1.3-activity and minK-activity [2]: totally prevented
CN[C@@H]1C[C@H]2O[C@@](C)([C@@H]1OC)n1c3ccccc3c3c4c(c5c6ccccc6n2c5c31)C(=O)NC4 [staurosporine, reference compound] | – | – | – | activation of the Na^+-channel rENaC by hsgk2 and hsgk3 [1]: inhibit activation of the Na^+-channel; stimulating effects of hsgk on ENaC-activity, Kv1.3-activity and minK-activity [2]: totally prevented
IGF1: insulin-like growth factor | – | – | – | reduction of total number of cells due to cell mortality ([3]; after 24 hours and 48 hours): lessened
margatoxin (TIINVKCTSPKQCLPPCKAQFGQSAGAKCMNGKCKCYPH; UniProt P40755 1-39, looked up) [reference compound] | – | – | – | effect of IGF1 on cell-number reduction ([3]; IGF1 plus simultaneous inhibition of K^+-channels, 24 and 48 hours): eliminated
B1 | 8.2 ± 0.7 μA | 4.5 ± 0.8 μA | 1.1 ± 0.11 μA | amiloride-inhibitable current, Iamil, through the Na^+-channel, rENaC [1]: increased significantly
B2 | 6.5 ± 0.6 μA | 9.4 ± 1.7 μA | 0.97 ± 0.1 μA | amiloride-inhibitable current, Iamil, through the Na^+-channel, rENaC [1]: increased significantly
B3 | 8.4 ± 1.8 μA | 5.9 ± 1.0 μA | 1.16 ± 0.11 μA | –

— US20040038882A1, “Sgk2 and sgk3 used as diagnostic and therapeutic targets” (priority 2000, published 2004)
